Test results published in US20060148030A1, “Nuclear receptor err y 3” (FUJISAWA PHARMACEUTICAL CO., LTD, priority 2002, published 2006).

Target: T1, RARα (Homo sapiens, UniProt P10276)
T1 construct: expressed in transfected cells; host or cells: CV-1 (African green monkey kidney)
T1 sequence (P10276 1-462): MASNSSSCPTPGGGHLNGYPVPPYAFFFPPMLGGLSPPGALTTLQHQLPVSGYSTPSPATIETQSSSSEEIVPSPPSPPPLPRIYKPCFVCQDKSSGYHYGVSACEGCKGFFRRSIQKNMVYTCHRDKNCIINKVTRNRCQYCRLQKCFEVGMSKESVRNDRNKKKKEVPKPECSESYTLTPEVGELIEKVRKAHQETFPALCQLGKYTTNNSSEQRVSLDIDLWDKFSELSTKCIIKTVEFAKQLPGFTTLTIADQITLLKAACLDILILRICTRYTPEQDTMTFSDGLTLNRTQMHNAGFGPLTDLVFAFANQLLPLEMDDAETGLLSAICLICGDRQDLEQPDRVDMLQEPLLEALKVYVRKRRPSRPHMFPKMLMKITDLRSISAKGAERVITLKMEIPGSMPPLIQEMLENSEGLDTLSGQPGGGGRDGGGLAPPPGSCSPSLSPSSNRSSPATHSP
T1 sequence (P19793 1-462 partner): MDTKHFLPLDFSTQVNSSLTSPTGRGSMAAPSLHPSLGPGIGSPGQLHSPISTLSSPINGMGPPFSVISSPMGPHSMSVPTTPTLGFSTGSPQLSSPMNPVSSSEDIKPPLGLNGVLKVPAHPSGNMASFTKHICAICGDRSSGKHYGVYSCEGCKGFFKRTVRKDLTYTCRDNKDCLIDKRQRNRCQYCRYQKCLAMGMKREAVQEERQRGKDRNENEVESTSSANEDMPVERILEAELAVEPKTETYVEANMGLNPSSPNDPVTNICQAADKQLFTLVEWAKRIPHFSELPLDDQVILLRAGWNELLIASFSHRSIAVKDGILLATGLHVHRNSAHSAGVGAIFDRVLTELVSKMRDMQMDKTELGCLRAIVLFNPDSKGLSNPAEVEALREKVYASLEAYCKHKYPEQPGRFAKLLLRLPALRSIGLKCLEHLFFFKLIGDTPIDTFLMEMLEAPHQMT
Assay: Reporter gene assay, ERRγ3 coexisted with RARα, pGVP2-RARE in CV-1 cells
Assay type: cell-based
Conditions: 5×10^−8 M retinoic acid, FIG. 22
Source text: The reporter gene assay was used to evaluate the effect of ligand 4-hydroxytamoxifen and 5×10^−8 M of retinoic acid on the function of ERRγ3 in enhancing the transcriptional activation function of retinoic acid receptor (RAR) (FIG. 22). RAR is a nuclear receptor belonging to group B of subfamily 1.
CV-1 cells (a cell line derived from the kidney of African green monkey) were used as hosts in the reporter gene assay. The luciferase reporter plasmid pGVP2-RARE and the expression plasmids for ERRγ3 and RARα: pcDNA3.1-ERRγ3 and pcDNA3.1-RARα, respectively, or alternatively the expression plasmid for both nuclear receptors, were transfected into the host cells. […]
Transfection was performed as follows: CV-1 cells were resuspended in DMEM supplemented with 10% fetal bovine serum, 2000 U/l of penicillin G, and 100 mg/l of streptomycin to a concentration of 2×10^5 cells/2.5 ml. […] 1 μg of each of the expression plasmids for the transcription factors, the luciferase reporter plasmid, and another luciferase reporter plasmid used for normalization of the measured values (pRL-TK), were dissolved in Opti-MEM (Gibco BRL), to a total of 150 μl. […] Luciferase activity was measured using the Dual-Luciferase™ Reporter Assay System (Promega). […] The protocol for measurement was as follows: 50 μl of Luciferase Assay Reagent II was added to each well, stirred for 0.3 seconds, and measured for one second. […]

B1: ERRγ3: novel ERRγ isoform, nuclear receptor protein of 396 amino acids (SEQ ID NO: 2) lacking part of the DNA binding domain (protein, listed as Homo sapiens)
chain: MSNKDRHIDSSCSSFIKTEPSSPASLTDSVNHHSPGGSSDASGSYSSTMNGHQNGLDSPPLYPSAPILGGSGPVRKLYDDCSSTIVEDPQTKCEYMLNSMPKRLCLVCGDIASGYHYGVASCEACKAFFKRTIQGVRLDRVRGGRQKYKRRIDAENSPYLNPQLAQPAKKPYNKIVSHLLVAEPEKIYAMPDPTVPDSDIKALTTLCDLADRELVVIIGWAKHIPGFSTLSLADQMSLLQSAWMEILILGVVYRSLSFEDELVYADDYIMDEDQSKLAGLLDLNNAILQLVKKYKSMKLEKEEFVTLKAIALANSDSMHIEDVEAVQKLQDVLHEALQDYEAGQHMEDPRRAGKMLMTLPLLRQTSTKAVQHFYNIKLEGKVPMHKLFLEMLEAKV
Question: How did the “modifying effect on the transcriptional stimulation activity of RAR” value turn out when B1 was run?
Answer: did not show a significant modifying effect
